Test results reported in patent US20190031761A1 (SAMSUNG LIFE PUBLIC WELFARE FOUNDATION, published 2019).

Legend:
[1] = target: T1, EGFRvIII expressed in cells (vIII352T1 cells; 626 patient-derived cells) (human, UniProt P00533 25-1210); assay: FACS on vIII352T1 cells (EGFRvIII only), Alexa Fluor 488 anti-human IgG
T1 construct: whole, on cells; On vIII352T1 cells (EGFR-/EGFRvIII+) in FACS and cytotoxicity assays

[2] = target: T2, recombinant human EGFR/ErbB1 Fc chimera protein (R&D systems, 344-ER) (human, UniProt P00533 25-645); assay: SPR (Biacore T200), B4A3 captured as ligand, rhEGFR-Fc as sample, 25 C, 1:1 Binding fit to sensorgrams that hardly leave the baseline
T2 construct: Bought protein; also called EGFR recombinant protein; Fc part of the bought chimera not given

[3] = target: T3, EGFRvIII recombinant protein with Fc tag, produced in-house (human); assay: SPR (Biacore T200), antibody captured with human Fab capture kit, EGFRvIII antigen 0.25 nM to 256 nM as analyte
T3 construct: Produced in Expi293 cells; also called EGFRvIII antigen
T3 sequence (chain, as listed by the source limits assumed): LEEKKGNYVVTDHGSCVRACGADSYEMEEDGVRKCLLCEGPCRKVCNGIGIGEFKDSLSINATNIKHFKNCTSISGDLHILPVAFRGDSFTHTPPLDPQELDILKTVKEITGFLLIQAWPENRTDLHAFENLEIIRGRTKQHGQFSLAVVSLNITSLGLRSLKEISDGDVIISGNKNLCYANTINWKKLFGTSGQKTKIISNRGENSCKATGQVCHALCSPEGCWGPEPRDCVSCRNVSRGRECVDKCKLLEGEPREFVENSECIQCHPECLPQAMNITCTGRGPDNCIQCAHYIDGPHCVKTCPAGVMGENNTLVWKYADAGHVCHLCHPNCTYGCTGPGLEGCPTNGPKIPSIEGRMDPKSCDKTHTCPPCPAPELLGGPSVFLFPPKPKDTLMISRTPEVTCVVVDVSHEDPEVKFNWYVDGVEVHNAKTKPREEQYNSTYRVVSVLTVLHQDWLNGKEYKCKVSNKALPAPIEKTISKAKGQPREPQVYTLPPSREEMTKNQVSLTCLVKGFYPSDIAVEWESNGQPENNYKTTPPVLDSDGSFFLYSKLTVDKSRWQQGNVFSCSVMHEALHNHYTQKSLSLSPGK

[4] = target: EGFR expressed on cells (780 patient-derived cells; normal human epidermal keratinocytes) (human, UniProt P00533 25-1210); assay: FACS on normal human epidermal keratinocytes (EGFR only), Alexa Fluor 488 anti-human IgG

EC50 (read off the curve) [1]: ~0.04 nM | koff [2]: 0.00801 s⁻¹ | kon [2]: 632 M⁻¹ s⁻¹ | Kd [3]: 4.38 nM | koff [3]: 0.000248 s⁻¹ | kon [3]: 56600 M⁻¹ s⁻¹ | EC50 (read off the curve) [4]: ~0.03 nM
B1: B4A3 antibody (human IgG1) (antibody, V domains shown)
VH: EVQLLESGGGLVQPGGSLRLSCAASGFTFSNYYMSWVRQAPGKGLEWVSGTSPNGGSKYYADSVKGRFTISRDNSKNTLYLQMNSLRAEDTAVYYCAKGRRKLRATRFDYWGQGTLVTVSS
VL: QSVLTQPPSASGTPGQRVTISCTGSSSNIGNNYVSWYQQHPGTAPKLLIYSDSNRPSGVPDRFSGSKSGTSASLAISGLRSEDEADYYCATWDASLSAYVFGGGTKLTVL
notes: also called B4A3 IgG; B4A3 human IgG1
